Measurements: PMC2132723

Legend:
[1] = molecular target: pericentrin (Xenopus egg extract) (Xenopus laevis (endogenous in egg extracts)); assay: quantitative Western blot; conditions: scale: γ-tubulin molecules per pericentrin molecule
[2] = molecular target: γ-tubulin (Xenopus egg extract) (Xenopus laevis (endogenous in egg extracts)) (UniProt P23330); assay: co-IP

| Substance | stoichiometry N [1] | percent of pericentrin co-depleted with γ-tubulin [2] [%] |
| --- | --- | --- |
| γ-tubulin (Xenopus egg extract) (from UniProt P23330 1-451) (natural protein) | 30 | – |
| pericentrin (Xenopus egg extract) (natural protein) | – | 85 to 95 |
